According to patent US20150004174A1 (Amgen, published 2015):

Key:
[1] = molecular target: T1, mouse PCSK9, 8xHis tagged (mouse, UniProt Q80W65 35-694); test: KinExA solution equilibrium
T1 construct: The biotinylated mouse PCSK9 of the hybridoma cross-reactivity screen is entered under this molecule; also called mPCSK9-8xHIS; mPCSK9; not shown: 8xHis tag named only in the label

human PCSK9 D374Y mutant = human PCSK9 D374Y mutant (human, UniProt Q8NBP7 31-692, biotinylated in the ELISA formats (site not stated)); test: cell-based or functional assay
[2] = molecular target: human PCSK9 (proprotein convertase subtilisin kexin type 9), wild type (human, UniProt Q8NBP7 31-692, biotinylated in the ELISA formats (site not stated)); test: cell-based or functional assay

T1 sequence (Q80W65 35-694): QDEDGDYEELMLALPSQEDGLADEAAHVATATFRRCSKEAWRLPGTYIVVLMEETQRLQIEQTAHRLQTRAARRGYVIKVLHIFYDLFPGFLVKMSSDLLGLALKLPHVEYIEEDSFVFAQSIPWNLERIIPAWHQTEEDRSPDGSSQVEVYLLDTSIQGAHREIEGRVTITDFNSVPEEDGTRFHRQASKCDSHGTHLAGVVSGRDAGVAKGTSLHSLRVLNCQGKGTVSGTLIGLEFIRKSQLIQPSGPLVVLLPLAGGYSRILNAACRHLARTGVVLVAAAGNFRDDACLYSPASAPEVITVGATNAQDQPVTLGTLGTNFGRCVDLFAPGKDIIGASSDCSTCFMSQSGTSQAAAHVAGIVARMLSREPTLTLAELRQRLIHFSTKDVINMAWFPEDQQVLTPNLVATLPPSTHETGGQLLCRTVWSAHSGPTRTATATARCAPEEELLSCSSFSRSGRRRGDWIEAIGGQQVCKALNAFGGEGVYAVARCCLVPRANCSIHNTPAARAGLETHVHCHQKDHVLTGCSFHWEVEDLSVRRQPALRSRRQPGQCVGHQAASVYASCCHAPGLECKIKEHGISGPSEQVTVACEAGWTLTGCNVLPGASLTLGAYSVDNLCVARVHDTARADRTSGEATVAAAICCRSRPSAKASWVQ

Binder	fold lower affinity to mouse PCSK9 than to human and cyno PCSK9 [1] [fold]	EC50, block of PCSK9-mediated decrease of BODIPY-LDL uptake in HepG2 cells (human PCSK9 D374Y mutant) [nM]	EC50, block of PCSK9-mediated decrease of BODIPY-LDL uptake in HepG2 cells [2] [nM]
16F12 human IgG4 (antibody, V domains shown, also called 16F12.1; 16F12, anti-PCSK9 huIgG4) VH: QVHLVESGGGVVQPGRSLRLSCAASGFTFNSFGMHWVRQAPGKGLEWVALIWSDGSDEYYADSVKGRFTISRDNSKNTLYLQMNSLRAEDTAVYYCARAIAALYYYYGMDVWGQGTTVTVSS VL: QSVLTQPPSVSAAPGQKVTISCSGSSSNIGNNFVSWYQQLPGTAPKLLIYDYNKRPSGIPDRFSGSKSGTSATLGITGLQTGDEADYYCGTWDSSLSAYVFGTGTRVTVLQ	10 to 250	–	–
11F1 anti-PCSK9 antibody (antibody, V domains shown) VH: EVQLVESGGGLVQPGGSLRLSCAASGFTFSNYWMSWVRQAPGKGLEWVASIKQDGSEKYYVDSVKGRFAISRDNAKNSLFLQMNSLRAEDTAVYYCARDLVLMVYDIDYYYYGMDVWGQGTTVTVSS VL: not shown	–	35.3	124
